In US20240218342A1, “SITE-SPECIFIC GLYCAN REMODELING OF LYSOSOMAL ENZYMES AND APPLICATIONS THEREOF” (priority 2021, published 2024) one finds deglycosylation of RNase B, isolated yield of GlcNAc-RNase B 67 and transglycosylation of oxazoline 8 to GlcNAc-RNase B, yield of glycoprotein 68 data, which are given here for 1 molecule.

One assay deals with Bovine RNase B (bovine) (UniProt P61823).
Assay [1] has as its target GlcNAc-RNase B (67) (bovine) (UniProt P61823).

Sequence of Bovine RNase B (bovine) (P61823 27-150): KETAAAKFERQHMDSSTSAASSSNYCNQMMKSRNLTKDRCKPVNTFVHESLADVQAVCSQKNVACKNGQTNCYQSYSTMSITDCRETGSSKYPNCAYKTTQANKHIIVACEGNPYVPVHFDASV
Sequence of GlcNAc-RNase B (67) (bovine) (P61823 27-150): as above

B1: Wild-type Endo-A (enzyme)
chain: STYNGPLSSHWFPEELAQWEPDSDPDAPFNRSHVPLEPGRVANRVNANADKDAHLVSLSALNRHTSGVPSQGAPVFYENTFSYWHYTDLMVYWAGSAGEGIIVPPSADVIDASHRNGVPILGNVFFPPTVYGGQLEWLEQMLEQEEDGSFPLADKLLEVADYYGFDGWFINQETEGADEGTAEAMQAFLVYLQEQKPEGMHIMWYDSMIDTGAIAWQNHLTDRNKMYLQNGSTRVADSMFLNFWWRDQRQSNELAQALGRSPYDLYAGVDVEARGTSTPVQWEGLFPEGEKAHTSLGLYRPDWAFQSSETMEAFYEKELQFWVGSTGNPAETDGQSNWPGMAHWFPAKSTATSVPFVTHFNTGSGAQFSAEGKTVSEQEWNNRSLQDVLPTWRWIQHGGDLEATFSWEEAFEGGSSLQWHGSLAEGEHAQIELYQTELPISEGTSLTWTFKSEHGNDLNVGFRLDGEEDFRYVEGEQRESINGWTQWTLPLDAFAGQTITGLAFAAEGNETGLAEFYIGQLAVGADSEKPAAPNVNVRQYDPDPSGIQLVWEKQSNVHHYRVYKETKHGKELIGTSAGDRIYLEGLVEESKQNDVRLHIEALSETFVPSDARMIDIKSGSF
In the assay with Bovine RNase B (bovine), B1 yielded a deglycosylation of RNase B, isolated yield of GlcNAc-RNase B 67 of 86%. The molecule also yielded a transglycosylation of oxazoline 8 to GlcNAc-RNase B, yield of glycoprotein 68 in assay [1] of 71%.
